Among the data in patent publication US20200399311A1 are Binding - Response Unit (RU) values, retold here.

Non-standard residues stand in square brackets, D forms with d. No end group written: not given here. Hyp = O=C(O)[C@@H]1C[C@@H](O)CN1; NMeI = CC[C@H](C)[C@H](NC)C(=O)O; hArg = N=C(N)NCCCC[C@H](N)C(=O)O; Cit = NC(=O)NCCC[C@H](N)C(=O)O; Nle = CCCC[C@H](N)C(=O)O; APPA = not defined here; Aib = CC(C)(N)C(=O)O

The target of the first experiment is Purified recombinant human PCSK9 (His-tagged, BPS Biosciences) (human) (UniProt Q8NBP7). The experiment is described as follows: SPR (Biacore T200), PCSK9 amine-coupled on chip, peptide at 50 µM. In general terms: SPR reads the build-up and loss of mass on a sensor chip optically.
Sequence of Purified recombinant human PCSK9 (His-tagged, BPS Biosciences) (human) (Q8NBP7 31-692 limits assumed): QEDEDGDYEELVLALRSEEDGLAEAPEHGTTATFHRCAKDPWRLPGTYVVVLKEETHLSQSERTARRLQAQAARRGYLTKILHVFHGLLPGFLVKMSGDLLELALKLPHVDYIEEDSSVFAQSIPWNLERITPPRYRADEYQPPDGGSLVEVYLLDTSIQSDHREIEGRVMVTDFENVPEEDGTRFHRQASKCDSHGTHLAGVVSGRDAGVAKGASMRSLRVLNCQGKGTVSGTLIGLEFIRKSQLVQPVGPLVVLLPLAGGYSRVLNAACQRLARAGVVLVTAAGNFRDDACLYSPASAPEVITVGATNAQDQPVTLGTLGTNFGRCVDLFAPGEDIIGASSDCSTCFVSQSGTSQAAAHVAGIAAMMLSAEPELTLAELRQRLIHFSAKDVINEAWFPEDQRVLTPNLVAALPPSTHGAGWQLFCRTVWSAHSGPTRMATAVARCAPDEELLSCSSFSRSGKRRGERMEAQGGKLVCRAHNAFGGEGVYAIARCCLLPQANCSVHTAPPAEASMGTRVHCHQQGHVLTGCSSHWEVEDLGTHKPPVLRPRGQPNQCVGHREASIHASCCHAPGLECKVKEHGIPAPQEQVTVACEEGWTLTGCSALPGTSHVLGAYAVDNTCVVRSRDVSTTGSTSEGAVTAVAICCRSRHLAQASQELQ
Turning to SIPWNLE[hArg]ITPC [Short chain peptide Seq. ID. No. 6 (SIPWNLE-Har-ITPC)], the Binding - Response Unit (RU) amounted to 6.55 RU.

Consider SIPWN[Nle]ERITPC [Short chain peptide Seq. ID. No. 7 (SIPWN-Nle-ERITPC)], for which the Binding - Response Unit (RU) is 6.65 RU.

Consider SIP[Bip(OMe)]NLERITPC [Short chain peptide Seq. ID. No. 19 (SIP-Bip(OMe)-NLERITPC)], for which the Binding - Response Unit (RU) amounted to 35.1 RU.

On to S[NMeI]IPWNLERITPC [Short chain peptide Seq. ID. No. 15 (S-(N-Me-Ile)-…)], for which the Binding - Response Unit (RU) stood at 11.4 RU.

In the case of [Aib]IPWNLERITPC [Short chain peptide Seq. ID. No. 14 (Aib-…)], the Binding - Response Unit (RU) worked out at 7.1 RU.

As for SIPWN[Aib]ERITPC [Short chain peptide Seq. ID. No. 10 (SIPWN-Aib-ERITPC)], the Binding - Response Unit (RU) was found to be 3 RU.

Turning to SIPWNLER[Nle]TPC [Short chain peptide Seq. ID. No. 4 (SIPWNLER-Nle-TPC)], the Binding - Response Unit (RU) is 13.1 RU.

For the molecule SIP[APPA]NLERITPC (reading uncertain) [Short chain peptide Seq. ID. No. 18 (SIP-APPA-NLERITPC)], the Binding - Response Unit (RU) was determined as 10.2 RU.

For SIPWNLE[Cit]ITPC [Short chain peptide Seq. ID. No. 12 (SIPWNLE-Cit-ITPC)], the Binding - Response Unit (RU) is 3.1 RU.

For SIPWNLERI[Aib]PC [Short chain peptide Seq. ID. No. 13 (…-Aib-PC)], the Binding - Response Unit (RU) stood at 9.75 RU.

For the molecule SIPWNLER[Aib]TPC [Short chain peptide Seq. ID. No. 5 (SIPWNLER-Aib-TPC)], the Binding - Response Unit (RU) stood at 2.3 RU.

On to SI[Hyp]WNLERITPC [Short chain peptide Seq. ID. No. 8 (SI-Hyp-…)], for which the Binding - Response Unit (RU) is 5.7 RU.

The target is the same in a further experiment. The experiment is described as follows: SPR (Biacore T200), PCSK9 amine-coupled on chip, peptide at 100 µM.
Consider SIPWNLE[hArg]ITPC [Short chain peptide Seq. ID. No. 6 (SIPWNLE-Har-ITPC)], for which the Binding - Response Unit (RU) was 17.5 RU.

Take SIPWN[Nle]ERITPC [Short chain peptide Seq. ID. No. 7 (SIPWN-Nle-ERITPC)]: the Binding - Response Unit (RU) came out at 16 RU.

SIP[Bip(OMe)]NLERITPC [Short chain peptide Seq. ID. No. 19 (SIP-Bip(OMe)-NLERITPC)]: the Binding - Response Unit (RU) was found to be 85.9 RU.

On to S[NMeI]IPWNLERITPC [Short chain peptide Seq. ID. No. 15 (S-(N-Me-Ile)-…)], for which the Binding - Response Unit (RU) was found to be 29.9 RU.

As to [Aib]IPWNLERITPC [Short chain peptide Seq. ID. No. 14 (Aib-…)], the Binding - Response Unit (RU) turned out to be 15 RU.

For SIPWN[Aib]ERITPC [Short chain peptide Seq. ID. No. 10 (SIPWN-Aib-ERITPC)], the Binding - Response Unit (RU) stood at 7.5 RU.

Take SIPWNLER[Nle]TPC [Short chain peptide Seq. ID. No. 4 (SIPWNLER-Nle-TPC)]: the Binding - Response Unit (RU) is 30 RU.

On to SIP[APPA]NLERITPC (reading uncertain) [Short chain peptide Seq. ID. No. 18 (SIP-APPA-NLERITPC)], for which the Binding - Response Unit (RU) is 17.9 RU.

As to SIPWNLE[Cit]ITPC [Short chain peptide Seq. ID. No. 12 (SIPWNLE-Cit-ITPC)], the Binding - Response Unit (RU) was 6.7 RU.

Regarding SIPWNLERI[Aib]PC [Short chain peptide Seq. ID. No. 13 (…-Aib-PC)], the Binding - Response Unit (RU) is 37.4 RU.

Regarding SIPWNLER[Aib]TPC [Short chain peptide Seq. ID. No. 5 (SIPWNLER-Aib-TPC)], the Binding - Response Unit (RU) was 7.1 RU.

With SI[Hyp]WNLERITPC [Short chain peptide Seq. ID. No. 8 (SI-Hyp-…)], the Binding - Response Unit (RU) is 13.2 RU.
